{"source": "paper PMC2847220", "about": "(Nucleic Acids Research, 2009)", "biological_target": "the molecule itself", "experiment": "AUC"}
{"protein": "Tpa1Δ20, N-terminal truncated form (residues 21–644) of S. cerevisiae Tpa1 (domain or fragment, UniProt P40032 21-644, looked up) LEEDKIKGMFNPKIWDKTFQDGLKKEIEDSQPYNWGTIHELVNDDLLRAVRKEIETEIHFTKKETDIYRVNQSGDLANLSGLDWDDLSRLPNLFKLRQILYSKQYRDFFGYVTKAGKLSGSKTDMSINTYTKGCHLLTHDDVIGSRRISFILYLPDPDRKWKSHYGGGLRLFPSILPNVPHSDPSAKLVPQFNQIAFFKVLPGFSFHDVEEVKVDKHRLSIQGWYHIPQVGEEGYIPGEEEAWVRNNTSTLAQIESNVLEDFEFPKDERNILSFHEVKHFEKMLKGDAGAKTDNTPKESMTSVISDSVKLSEAEFTYLSQYISPEHLSSKGIEKLQKQFVENSSLQIESFLNDDKSELLKKVIKQKELEQECPYHSKDVKAPWKTAIPPHKARYLYIDGKEYRNFQTEADILEALNNNDLPNFQFTKDAIKIISDASGNSRENNFDAELALIDLAVFHKSTIFKKYLALLTSLCPVSEQILIRRFRPGMDFTLATKCRFNELLKSNPDIIDAVLEGTLCLTPSAGWESGELGGYELYMMDDDEDNKQYLKEDVEDASVYRADDSGDSVLINDPPAWNTFNLVLRDESVLEFVKYVSWSAKSSRWDVKMKWDVKSCDEDGQEDEA", "values": [{"measurement": "stoichiometry N", "value": 2}]}
